PMC8626469, “Helicobacter pylori FabX contains a [4Fe-4S] cluster essential for unsaturated fatty acid synthesis” (Nature Communications, 2021)

How the values were obtained:
[1] = molecular target: Helicobacter pylori FabX R164A (H. pylori)
[2] = molecular target: Helicobacter pylori FabX (H. pylori); assay: SEC-MALS; 10 mg/ml FabX, holo-ACP or FabX-holo-ACP complex on a WTC-030S5 column; 20 mM HEPES pH 8.0, 50 mM NaCl, 10 mM TCEP
purified protein = substrate: CCCCCCCCCC(=O)SCCNC(=O)CCNC(=O)[C@H](O)C(C)(C)COP(=O)(O)OP(=O)(O)OC[C@H]1O[C@@H](n2cnc3c(N)ncnc32)[C@H](O)[C@@H]1OP(=O)(O)O; assay: purified protein; type: biochemical, Helicobacter pylori; details: pH 7.2, 50 mM sodium phosphate, 50 mM NaCl, 25-37 °C, 1.25 uM FabX, 5 uM E. coli FabI, 125 uM NADH, dehydrogenation of substrate analogue of decanoyl-ACP, 30-250 uM

B1: Helicobacter pylori decanoyl-acyl carrier protein (natural protein)
chain: MALFEDIQAVIAEQLNVDAVQVTPEAEFVKDLGADSLDVVELIMALEEKFGVEIPDEQAEKIINVGDVVKYIEDNKLA
B1 showed an in vitro dehydrogenation activity with decanoyl-ACP (FabX-FabI coupled assay), fold reduction against wild type FabX [1] of 80 fold.

B2: Helicobacter pylori holo-acyl carrier protein (natural protein)
chain: B1 chain
modifications: phosphopantetheine group (PPant) on Ser36
B2 gave a stoichiometry N [2] of 1.

B3: FabX (Helicobacter pylori) (protein)
chain: MVSTLKPLKIGKHTIKFPIFQGGMGVGISWDELAGNVAKEGALGVISAVGTGYYKNMRFVERIVAKKPFEALNFYSKKALNEIFANARKICGNNPLGANILYAINDYGRVLRDSCEAGANIIITGAGLPTNMPEFAKDFSDVALIPIISSAKALKILCKRWSDRYKRIPDAFIVEGPLSGGHQGFKYEDCFKEEFRLENLVPKVVEASKEWGNIPIIAAGGIWDRKDIDTMLSLGASGVQMATRFLGTKECDAKVYADLLPTLKKEDILLIKSPVGYPARAINTGVIKRIEEGNAPKIACVSNCVAPCNRGEEAKKVGYCIADGLGRSYLGNREEGLYFTGANGYRVDKIISVHELIKELTEG
notes: full length, 363 residues; expressed in E. coli BL21(DE3) Rosetta; monomer in the asymmetric unit; holds FMN and a [4Fe-4S] cluster
Work on B3 yielded a Km (purified protein) of 125.40 µM and a kcat (purified protein) of 0.0186 s⁻¹.
